{"source": "paper PMC5052646", "about": "“DNA annealing by Redβ is insufficient for homologous recombination and the additional requirements involve intra- and inter-molecular interactions” (Scientific Reports, 2016)", "binders": {"B1": {"name": "Redα, Strep-tag II tagged, purified, P03697 1-226 (enzyme)", "chain": "MTPDIILQRTGIDVRAVEQGDDAWHKLRLGVITASEVHNVIAKPRSGKKWPDMKMSYFHTLLAEVCTGVAPEVNAKALAWGKQYENDARTLFEFTSGVNVTESPIIYRDESMRTACSPDGLCSDGNGLELKCPFTSRDFMKFRLGGFEAIKSAYMAQVQYSMWVTRKNAWYFANYDPRMKREGLHYVVIERDEKYMASFDEIVPEFIEKMDEALAEIGFVFGEQWR"}, "B2": {"name": "wt Redβ, Strep-tag II tagged, purified (natural protein, λ phage, UniProt P03698 1-261, looked up)", "chain": "MSTALATLAGKLAERVGMDSVDPQELITTLRQTAFKGDASDAQFIALLIVANQYGLNPWTKEIYAFPDKQNGIVPVVGVDGWSRIINENQQFDGMDFEQDNESCTCRIYRKDRNHPICVTEWMDECRREPFKTREGREITGPWQSHPKRMLRHKAMIQCARLAFGFAGIYDKDEAERIVENTAYTAERQPERDITPVNDETMQEINTLLIALDKTWDDDLLPLCSQIFRRDIRASSELTQAEAVKALGFLKQKAAEQKVAA", "notes": "Redβ, single strand annealing protein of λ phage; the ORF cloned into pASK-IBA2; 261 residues by the printed limits of the truncations; also called wild type Redβ; not shown: Strep-tag II, C-terminal, kept"}, "B3": {"name": "C3Redβ (1–185), Strep-tag II tagged, purified (domain or fragment, λ phage, UniProt P03698 1-185, looked up)", "chain": "MSTALATLAGKLAERVGMDSVDPQELITTLRQTAFKGDASDAQFIALLIVANQYGLNPWTKEIYAFPDKQNGIVPVVGVDGWSRIINENQQFDGMDFEQDNESCTCRIYRKDRNHPICVTEWMDECRREPFKTREGREITGPWQSHPKRMLRHKAMIQCARLAFGFAGIYDKDEAERIVENTAYT", "notes": "Redβ of λ phage, residues 1-185 (C-terminal truncation C3); also called C3 deletion; C3-truncated Redβ; not shown: Strep-tag II, C-terminal, kept"}, "B4": {"name": "N1Redβ (20–261), Strep-tag II tagged, purified (domain or fragment, λ phage, UniProt P03698 20-261, looked up)", "chain": "SVDPQELITTLRQTAFKGDASDAQFIALLIVANQYGLNPWTKEIYAFPDKQNGIVPVVGVDGWSRIINENQQFDGMDFEQDNESCTCRIYRKDRNHPICVTEWMDECRREPFKTREGREITGPWQSHPKRMLRHKAMIQCARLAFGFAGIYDKDEAERIVENTAYTAERQPERDITPVNDETMQEINTLLIALDKTWDDDLLPLCSQIFRRDIRASSELTQAEAVKALGFLKQKAAEQKVAA", "notes": "Redβ of λ phage, residues 20-261 (N-terminal truncation N1); also called N1 deletion; not shown: Strep-tag II, C-terminal, kept"}, "B5": {"name": "50-mer complementary pair, sequentially added (dsDNA)", "DNA 1": "CCATCCGCAAAAATCGAGCTATGCAGGGCGATTCTGCTCTAAGCCATCCG", "DNA 2": "GCGGATGGCTTAGAGCAGAATCGCCCTGCATAGCTCGATTTTTGCGGATG"}}, "key": {"[1]": {"biological_target": "T1, wt Redβ, Strep-tag II tagged, purified (λ phage), P03698", "T1 chain": "B2 chain", "assay": "ITC; Redα (150 μM) injected in 2 μl steps at 3 min intervals into the cell with Redβ (15 μM); 25 °C; 20 mM HEPES, 150 mM sodium chloride, 1 mM magnesium chloride, 0.5 mM TECP, pH 8; single-site binding model", "conditions": "remark: other sources report otherwise"}, "[2]": {"biological_target": "the molecule itself", "assay": "SEC-MALS; SEC peaks analysed by DLS and SLS/MALS (Dawn Heleos II); purified Redβ proteins injected at 1 mg/ml; species after elution (dilution); without DNA"}, "Redβ wt [3]": {"biological_target": "T2, Redβ wt (phage lambda, UniProt P03698 1-261)", "T2 sequence": "B2 chain", "assay": "EMSA; 10 uM protein, 1 uM DNA; weak ssDNA binding (smear), non-complementary Cy5 oligo added; EMSA: 10 uM protein, 1 uM DNA, 20 mM Tris-HCl pH 7.5, 10 mM NaCl, 10 mM MgCl2, 37 C 30 min (+30 min after complementary oligo), 1.2-1.6% agarose, 2x TBE", "conditions": "protein: recombinant; single strand"}, "C3Redβ [4]": {"biological_target": "T3, C3Redβ (phage lambda, UniProt P03698 1-185)", "T3 sequence": "B3 chain", "assay": "EMSA; 10 uM protein, 1 uM DNA; weak ssDNA binding (smear), non-complementary Cy5 oligo added; EMSA: 10 uM protein, 1 uM DNA, 20 mM Tris-HCl pH 7.5, 10 mM NaCl, 10 mM MgCl2, 37 C 30 min (+30 min after complementary oligo), 1.2-1.6% agarose, 2x TBE", "conditions": "protein: recombinant; tags: Strep-tag II; N-terminal per Methods, C-terminal per legends; single strand"}, "Redβ wt [5]": {"biological_target": "T2, Redβ wt", "assay": "EMSA; sequential addition of strands; annealed nucleoprotein filament; EMSA: 10 uM protein, 1 uM DNA, 20 mM Tris-HCl pH 7.5, 10 mM NaCl, 10 mM MgCl2, 37 C 30 min (+30 min after complementary oligo), 1.2-1.6% agarose, 2x TBE", "conditions": "protein: recombinant; label: 5'-Cy3 on one strand, 5'-Cy5 on the other; 49 bp, 5' overhang 1 nt at each end as printed; annealed by the protein"}, "C3Redβ [6]": {"biological_target": "T3, C3Redβ", "assay": "EMSA; sequential addition of strands; annealed nucleoprotein filament; EMSA: 10 uM protein, 1 uM DNA, 20 mM Tris-HCl pH 7.5, 10 mM NaCl, 10 mM MgCl2, 37 C 30 min (+30 min after complementary oligo), 1.2-1.6% agarose, 2x TBE", "conditions": "protein: recombinant; tags: Strep-tag II; N-terminal per Methods, C-terminal per legends; label: 5'-Cy3 on one strand, 5'-Cy5 on the other; 49 bp, 5' overhang 1 nt at each end as printed; annealed by the protein"}}}
{"binder": "B1", "values": [{"measurement": "Kd", "setting": "[1]", "result": 7.9, "unit": "µM"}, {"measurement": "dH", "setting": "[1]", "result": -9.84, "unit": "kcal/mol"}]}
{"binder": "B2", "values": [{"measurement": "Dist (%) of Species 3 (1 subunit, monomer)", "setting": "[2]", "result": 68.2, "unit": "%"}]}
{"binder": "B3", "values": [{"measurement": "Dist (%) of Species 3 (1 subunit, monomer)", "setting": "[2]", "result": 9.3, "unit": "%"}]}
{"binder": "B4", "values": [{"measurement": "Dist (%) of Species 3 (1 subunit, monomer)", "setting": "[2]", "result": 7.4, "unit": "%"}]}
{"binder": "CCATCCGCAAAAATCGAGCTATGCAGGGCGATTCTGCTCTAAGCCATCCG (ssDNA)", "note": "[Cy3 50-mer ssDNA]", "values": [{"measurement": "binding result", "setting": "Redβ wt [3]", "result": "binds"}, {"measurement": "binding result", "setting": "C3Redβ [4]", "result": "binds"}]}
{"binder": "B5", "values": [{"measurement": "binding result", "setting": "Redβ wt [5]", "result": "binds"}, {"measurement": "binding result", "setting": "C3Redβ [6]", "result": "binds"}]}
